Target: T1, human PD-L1 extracellular domain (human, UniProt Q9NZQ7 19-238)
T1 construct: also called recombinant PD-L1; recombinant human PD-L1 extracellular domain protein
Test: BLI (Octet Red 96), antibody on anti-human Fc biosensor, PD-L1 ECD in solution, 1:1 global fit
Method: The binding kinetics of selected anti-PD-L1 antibodies AB1-AB5 and AB1HU-AB5HU was determined by bio-layer interferometry analysis on a ForteBio Octet Red 96 instrument. First, purified antibodies were produced by protein A chromatography using HEK-293 transiently-transfected antibody supernatants. This assay was performed by immobilizing the purified antibodies to anti-human Fc biosensors. PD-L1 binding to and dissociation from the biosensors was then observed at various concentrations of PD-L1. Specifically, eight anti-human Fc biosensors were placed into wells containing the same purified antibody for 5 minutes. Biosensors were equilibrated in kinetics buffer (Pall ForteBio) for 1 minute to establish a baseline. Association of PD-L1 was observed by placing the biosensors into wells containing various concentrations of human PD-L1 extracellular domain for 5 minutes. Dissociation was measured after transfer of the biosensors into kinetics buffer and monitoring the interferometry signals for 15 minutes. All steps of the assay were performed at 30° C. with shaking at 1000 RPM. The on and off rates (kon and koff) and the equilibrium binding constant KD were determined using the software provided by the manufacturer and were fit using a 1:1 binding global fit model comprising several of the concentrations tested.

T1 sequence (Q9NZQ7 19-238 limits assumed): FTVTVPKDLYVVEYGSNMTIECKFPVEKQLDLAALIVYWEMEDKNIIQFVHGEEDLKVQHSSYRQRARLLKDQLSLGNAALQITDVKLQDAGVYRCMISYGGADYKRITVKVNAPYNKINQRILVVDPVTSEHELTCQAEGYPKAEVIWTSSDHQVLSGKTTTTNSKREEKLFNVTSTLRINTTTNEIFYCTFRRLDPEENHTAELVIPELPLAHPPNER

Row | Kd [nM] | koff [s⁻¹] | kon [M⁻¹ s⁻¹] | Binder
1 | 0.286 | 0.000175 | 613000 | AB5 (rabbit/human chimeric anti-PD-L1 antibody) (antibody, human IgG1, kappa, V domains shown, Rabbit variable domains on human IgG1 / human kappa constant domains; also called AB5 CHIMERIC) VH: QSVEESGGRLVTPGTPLTLTCTVSGIDLNTYDMIWVRQAPGKGLEWIGIITYSGSRYYANWAKGRFTISKTSTTVDLRITSPTTEDTATYFCARDYMSGSHLWGPGTLVTVSS VL: AYDMTQTPASVEVAVGGTVTIKCQASEDIYSFLAWYQLKPGQSPKLLIHSASSLASGVSSRFKGSGSGTHFTLTISGVECADAATYYCQQGYGKNNVDNAFGGGTEVVVKR
2 | 1.01 | 0.000422 | 417000 | AB4 (rabbit/human chimeric anti-PD-L1 antibody) (antibody, human IgG1, kappa, V domains shown, Rabbit variable domains on human IgG1 / human kappa constant domains; also called AB4 CHIMERIC) VH: QSVEESGGRLVTPGTPLTLTCTVSGIDLSVINMGWVRQAPGEGLEWIGTITYVGNTYYASWAKGRFTISKTSTTVDLKITSPTTEDTATYFCARESGTIYYSYFNLWGQGTLVTVSS VL: AFELTQTPASVSEPVGGTVTIKCQASESISNYLSWYQQIPGQPPNLLIYYASNLASGVPSRFKGSGSGTEFTLTISDLECADAATYYCQSYYGGGSAYTFGGGTEVVVKR
3 | 1.7 | 0.000766 | 451000 | AB4HU (humanized form of antibody AB4) (antibody, human IgG1, kappa, V domains shown, Humanized, human gamma-1 / kappa constant domains) VH: EVQLVESGGGLVQPGGSLRLSCTVSGIDLSVINMGWVRQAPGKGLEWIGTITYVGNTYYASWAKGRFTISKTSTTVDLKITSPTTEDTAVYYCARESGTIYYSYFNLWGQGTLVTVSS VL: AFELTQSPSSLSASVGDRVTIKCQASESISNYLSWYQQIPGKVPKLLIYYASNLASGVPSRFSGSGSGTDFTLTISSLQPEDVATYYCQSYYGGGSAYTFGGGTKVEIKR
4 | 0.401 | 0.000234 | 583000 | AB5HU (humanized form of antibody AB5) (antibody, human IgG1, kappa, V domains shown, Humanized, human gamma-1 / kappa constant domains) VH: QSVEESGGGLVQPGGSLRLSCTASGIDLNTYDMIWVRQAPGKGLEWVGIITYSGSRYYANWAKGRFTISKDNTKNTVYLQMNSLRAEDTAVYYCARDYMSGSHLWGQGTLVTVSS VL: AYDMTQSPSSVSASVGDRVTIKCQASEDIYSFLAWYQQKPGKAPKLLIHSASSLASGVPSRFSGSGSGTDFTLTISSLQPEDFATYYCQQGYGKNNVDNAFGGGTKVEIKR
5 | 1.81 | 0.000337 | 186000 | AB3HU (humanized form of antibody AB3) (antibody, human IgG1, kappa, V domains shown, Humanized, human gamma-1 / kappa constant domains) VH: EVQLVESGGGLVQPGGSLRLSCAASGFSLSSYWMSWVRQAPGKGLEWIGVIDTNVYIYYANWAKGRFTISRDNSKNTLYLQMNSLRAEDTAVYYCARYVGNNDDYINLWGQGTLVTVSS VL: DIQMTQSPSTLSASVGDRVTITCQSSQSVYNGYWLSWYQQKPGKAPKLLIYGASTLASGVPSRFSGSGSGTEFTLTISSLQPDDFATYYCLGSYTSSTENSFGGGTKVEIKR

Further lines, the binder ahead of its results:

Row | Binder | Kd [nM] | koff [s⁻¹] | kon [M⁻¹ s⁻¹]
6 | AB2HU (humanized form of antibody AB2) (antibody, human IgG1, kappa, V domains shown, Humanized, human gamma-1 / kappa constant domains) VH: not shown VL: AYDMTQSPSSVSASVGDRVTINCQASESISSFLSWYQQKPGKAPKLLIFSASTLASGVPSRFSGSGSGTDFTLTISSLQPEDFATYYCQQGYSKSNVDNAFGGGTKVEIKR | 0.366 | 0.000203 | 553000
7 | AB3 (rabbit/human chimeric anti-PD-L1 antibody) (antibody, human IgG1, kappa, V domains shown, Rabbit variable domains on human IgG1 / human kappa constant domains; also called AB3 CHIMERIC) VH: QEQLEESGGGLVTPGGTLTLTCTVSGFSLSSYWMSWVRQAPGKGLEWIGVIDTNVYIYYANWAKGRFTISKTSTTVDLKITSPTTEDTATYFCARYVGNNDDYINLWGPGTLVTVSS VL: AVLTQTPSPVSAAVGGTVSISCQSSQSVYNGYWLSWYQQKPGQPPKLLIYGASTLASGVPSRFKGSGSGTQFTLTINDVQCDDAATYYCLGSYTSSTENSFGGGTEVVVKR | 0.467 | 0.000144 | 308000
8 | AB1HU (humanized form of antibody AB1) (antibody, human IgG1, kappa, V domains shown, Humanized, human gamma-1 / kappa constant domains) VH: EVQLLESGGGLVQPGGSLRLSCAASGFSFSSGYDMCWVRQAPGKGLEWIACIAAGSAGITYDANWAKGRFTISRDNSKNTLYLQMNSLRAEDTAVYYCARSAFSFDYAMDLWGQGTLVTVSS VL: DIQMTQSPSTLSASVGDRVTITCQASQSISSHLNWYQQKPGKAPKLLIYKASTLASGVPSRFSGSGSGTEFTLTISSLQPDDFATYYCQQGYSWGNVDNVFGGGTKVEIKR | 0.422 | 0.000239 | 568000
9 | AB1 (rabbit/human chimeric anti-PD-L1 antibody) (antibody, human IgG1, kappa, V domains shown, Rabbit variable domains on human IgG1 / human kappa constant domains; purified by protein A from HEK-293 supernatants; also called AB1 CHIMERIC) VH: QEQLVESGGGLVQPEGSLTLTCKASGFSFSSGYDMCWVRRAPGKGLEWIACIAAGSAGITYDANWAKGRFTISKTSSTTVTLQMTSLTAADTATYFCARSAFSFDYAMDLWGPGTLVTVSS VL: DPVLTQTPASVEVAVGGTVTIKCQASQSISSHLNWYQQKPGQPPKLLIYKASTLASGVPSRFKGSGSGTEFTLTISSVQCDNAATYYCQQGYSWGNVDNVFGGGTEVVVKR | 0.347 | 0.00015 | 433000
10 | AB2 (rabbit/human chimeric anti-PD-L1 antibody) (antibody, human IgG1, kappa, V domains shown, Rabbit variable domains on human IgG1 / human kappa constant domains; also called AB2 CHIMERIC) VH: QSLEESGGRLVTPGTPLTLTCTTSGIDLSTYDMIWVRQAPGKGLEYIGIISYVGNTYYASWAKGRFTLSKTSTTVDLRITSPTTEDTATYFCARDFISGSHLWGPGTLVTVSS VL: AYDMTQTPASVSAAVGGTVTINCQASESISSFLSWYQQKPGQRPRLLIFSASTLASGVPSRFKGSGSGTEFTLTISGVECADAATYYCQQGYSKSNVDNAFGGGTEVVVKR | 0.379 | 0.000166 | 438000

Source: patent US20220002417A1 (BAILI BIO CHENGDU PHARMACEUTICAL, published 2022)
